B1: GOLPH3 (parent)
chain: FAPLLDEQYDLATKRVRQLLDLDP

Variants of: B1
Experiment: protein stability index of a GFP-peptide fusion (GPS, HEK-293T) (PSI 1-6); higher = more stable
Conditions: c terminus: a fixed tail appended
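Further: lentivirally expressed fusions sorted by FACS into six bins by GFP to DsRed ratio, PSI derived from sequencing read proportions per bin multiplied by bin number.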

Variant | protein stability index
CAPLLDEQYDLATKRVRQLLDLDP [F1C] | 2.5
DAPLLDEQYDLATKRVRQLLDLDP [F1D] | 4.39
EAPLLDEQYDLATKRVRQLLDLDP [F1E] | 4.59
GAPLLDEQYDLATKRVRQLLDLDP [F1G] | 4.41
HAPLLDEQYDLATKRVRQLLDLDP [F1H] | 4
IAPLLDEQYDLATKRVRQLLDLDP [F1I] | 3.11
KAPLLDEQYDLATKRVRQLLDLDP [F1K] | 3.61
LAPLLDEQYDLATKRVRQLLDLDP [F1L] | 3.67
MAPLLDEQYDLATKRVRQLLDLDP [F1M] | 3.58
NAPLLDEQYDLATKRVRQLLDLDP [F1N] | 3.86
PAPLLDEQYDLATKRVRQLLDLDP [F1P] | 4.59
QAPLLDEQYDLATKRVRQLLDLDP [F1Q] | 4.03
SAPLLDEQYDLATKRVRQLLDLDP [F1S] | 4.39
TAPLLDEQYDLATKRVRQLLDLDP [F1T] | 4.11
VAPLLDEQYDLATKRVRQLLDLDP [F1V] | 3.06
WAPLLDEQYDLATKRVRQLLDLDP [F1W] | 2.46
YAPLLDEQYDLATKRVRQLLDLDP [F1Y] | 2.39
FCPLLDEQYDLATKRVRQLLDLDP [A2C] | 1.85
FDPLLDEQYDLATKRVRQLLDLDP [A2D] | 3.71
FEPLLDEQYDLATKRVRQLLDLDP [A2E] | 3.13
FFPLLDEQYDLATKRVRQLLDLDP [A2F] | 2.03
FGPLLDEQYDLATKRVRQLLDLDP [A2G] | 3.19
FHPLLDEQYDLATKRVRQLLDLDP [A2H] | 2.48
FIPLLDEQYDLATKRVRQLLDLDP [A2I] | 1.75

Variant | protein stability index
FKPLLDEQYDLATKRVRQLLDLDP [A2K] | 3.14
FLPLLDEQYDLATKRVRQLLDLDP [A2L] | 2.2
FMPLLDEQYDLATKRVRQLLDLDP [A2M] | 2.03
FNPLLDEQYDLATKRVRQLLDLDP [A2N] | 3.01
FPPLLDEQYDLATKRVRQLLDLDP [A2P] | 3.45
FQPLLDEQYDLATKRVRQLLDLDP [A2Q] | 3.37
FSPLLDEQYDLATKRVRQLLDLDP [A2S] | 3.46
FTPLLDEQYDLATKRVRQLLDLDP [A2T] | 2.71
FVPLLDEQYDLATKRVRQLLDLDP [A2V] | 2.11
FWPLLDEQYDLATKRVRQLLDLDP [A2W] | 1.92
FYPLLDEQYDLATKRVRQLLDLDP [A2Y] | 2.43
FAALLDEQYDLATKRVRQLLDLDP [P3A] | 2.34
FACLLDEQYDLATKRVRQLLDLDP [P3C] | 2.44
FADLLDEQYDLATKRVRQLLDLDP [P3D] | 2.79
FAELLDEQYDLATKRVRQLLDLDP [P3E] | 3.18
FAFLLDEQYDLATKRVRQLLDLDP [P3F] | 1.52
FAGLLDEQYDLATKRVRQLLDLDP [P3G] | 2.59
FAHLLDEQYDLATKRVRQLLDLDP [P3H] | 3.07
FAILLDEQYDLATKRVRQLLDLDP [P3I] | 1.68
FAKLLDEQYDLATKRVRQLLDLDP [P3K] | 2.44
FALLLDEQYDLATKRVRQLLDLDP [P3L] | 1.6
FAMLLDEQYDLATKRVRQLLDLDP [P3M] | 1.78
FANLLDEQYDLATKRVRQLLDLDP [P3N] | 3.18
FAQLLDEQYDLATKRVRQLLDLDP [P3Q] | 2.05

Variant | protein stability index
FARLLDEQYDLATKRVRQLLDLDP [P3R] | 1.87
FASLLDEQYDLATKRVRQLLDLDP [P3S] | 2.34
FATLLDEQYDLATKRVRQLLDLDP [P3T] | 2.88
FAVLLDEQYDLATKRVRQLLDLDP [P3V] | 2.38
FAWLLDEQYDLATKRVRQLLDLDP [P3W] | 2.16
FAYLLDEQYDLATKRVRQLLDLDP [P3Y] | 2.28
FAPALDEQYDLATKRVRQLLDLDP [L4A] | 1.81
FAPCLDEQYDLATKRVRQLLDLDP [L4C] | 1.67
FAPDLDEQYDLATKRVRQLLDLDP [L4D] | 3.39
FAPELDEQYDLATKRVRQLLDLDP [L4E] | 2.79
FAPFLDEQYDLATKRVRQLLDLDP [L4F] | 2.01
FAPGLDEQYDLATKRVRQLLDLDP [L4G] | 2.27
FAPHLDEQYDLATKRVRQLLDLDP [L4H] | 2.31
FAPILDEQYDLATKRVRQLLDLDP [L4I] | 2.33
FAPKLDEQYDLATKRVRQLLDLDP [L4K] | 2.34
FAPMLDEQYDLATKRVRQLLDLDP [L4M] | 1.76
FAPNLDEQYDLATKRVRQLLDLDP [L4N] | 3.2
FAPPLDEQYDLATKRVRQLLDLDP [L4P] | 2.35
FAPQLDEQYDLATKRVRQLLDLDP [L4Q] | 2.12
FAPRLDEQYDLATKRVRQLLDLDP [L4R] | 1.43
FAPSLDEQYDLATKRVRQLLDLDP [L4S] | 1.75
FAPTLDEQYDLATKRVRQLLDLDP [L4T] | 1.72
FAPVLDEQYDLATKRVRQLLDLDP [L4V] | 3.17
FAPWLDEQYDLATKRVRQLLDLDP [L4W] | 2.28

Variant | protein stability index
FAPYLDEQYDLATKRVRQLLDLDP [L4Y] | 2.65
FAPLADEQYDLATKRVRQLLDLDP [L5A] | 2.34
FAPLCDEQYDLATKRVRQLLDLDP [L5C] | 1.82
FAPLDDEQYDLATKRVRQLLDLDP [L5D] | 3.74
FAPLEDEQYDLATKRVRQLLDLDP [L5E] | 3.7
FAPLFDEQYDLATKRVRQLLDLDP [L5F] | 2.6
FAPLGDEQYDLATKRVRQLLDLDP [L5G] | 2.24
FAPLHDEQYDLATKRVRQLLDLDP [L5H] | 2.42
FAPLIDEQYDLATKRVRQLLDLDP [L5I] | 1.78
FAPLKDEQYDLATKRVRQLLDLDP [L5K] | 2.39
FAPLMDEQYDLATKRVRQLLDLDP [L5M] | 2.38
FAPLNDEQYDLATKRVRQLLDLDP [L5N] | 2.97
FAPLPDEQYDLATKRVRQLLDLDP [L5P] | 2.21
FAPLQDEQYDLATKRVRQLLDLDP [L5Q] | 2.45
FAPLRDEQYDLATKRVRQLLDLDP [L5R] | 1.18
FAPLSDEQYDLATKRVRQLLDLDP [L5S] | 1.85
FAPLTDEQYDLATKRVRQLLDLDP [L5T] | 1.95
FAPLVDEQYDLATKRVRQLLDLDP [L5V] | 2.21
FAPLWDEQYDLATKRVRQLLDLDP [L5W] | 2.07
FAPLYDEQYDLATKRVRQLLDLDP [L5Y] | 2.45
FAPLLAEQYDLATKRVRQLLDLDP [D6A] | 2.38
FAPLLCEQYDLATKRVRQLLDLDP [D6C] | 2.25

Source: the supplement of paper PMC10567573
